Assay results taken from patent US20180355060A1 (published 2018).

Key:
[1] = biological target: T1, rat TG2 (rat, UniProt Q9WVJ6 1-686); assay: cell-based or functional assay
T1 sequence: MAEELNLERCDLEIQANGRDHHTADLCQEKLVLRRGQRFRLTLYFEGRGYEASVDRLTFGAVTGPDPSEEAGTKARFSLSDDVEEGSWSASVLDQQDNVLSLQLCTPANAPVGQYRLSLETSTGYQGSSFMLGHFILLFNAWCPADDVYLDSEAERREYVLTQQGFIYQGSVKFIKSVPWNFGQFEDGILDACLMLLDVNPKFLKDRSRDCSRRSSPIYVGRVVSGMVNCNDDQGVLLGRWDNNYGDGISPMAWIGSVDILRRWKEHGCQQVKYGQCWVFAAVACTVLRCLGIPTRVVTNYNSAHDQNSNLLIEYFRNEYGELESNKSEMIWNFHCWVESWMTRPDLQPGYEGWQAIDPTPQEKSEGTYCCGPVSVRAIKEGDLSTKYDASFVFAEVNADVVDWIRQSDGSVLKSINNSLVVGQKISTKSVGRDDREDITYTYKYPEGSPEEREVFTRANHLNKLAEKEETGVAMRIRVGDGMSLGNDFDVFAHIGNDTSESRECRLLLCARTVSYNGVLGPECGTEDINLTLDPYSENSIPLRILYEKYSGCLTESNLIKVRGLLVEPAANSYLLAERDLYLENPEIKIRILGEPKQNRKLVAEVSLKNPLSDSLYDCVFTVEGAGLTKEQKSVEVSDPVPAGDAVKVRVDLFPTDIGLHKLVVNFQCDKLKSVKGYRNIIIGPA

[2] = biological target: T1, rat TG2; assay: western blot and ELISA
[3] = biological target: T2, cynomolgus monkey TG2 (cynomolgus monkey, UniProt A0A2K5VXI8 2-687); assay: SPR (Biacore T200), antibody captured on anti-human IgG1 Fc chip, cynomolgus TG2 injected; -Ca2+
T2 construct: Recombinant, from Trenzyme; also called cynomogulus monkey TG2; cyano TG2
T2 sequence: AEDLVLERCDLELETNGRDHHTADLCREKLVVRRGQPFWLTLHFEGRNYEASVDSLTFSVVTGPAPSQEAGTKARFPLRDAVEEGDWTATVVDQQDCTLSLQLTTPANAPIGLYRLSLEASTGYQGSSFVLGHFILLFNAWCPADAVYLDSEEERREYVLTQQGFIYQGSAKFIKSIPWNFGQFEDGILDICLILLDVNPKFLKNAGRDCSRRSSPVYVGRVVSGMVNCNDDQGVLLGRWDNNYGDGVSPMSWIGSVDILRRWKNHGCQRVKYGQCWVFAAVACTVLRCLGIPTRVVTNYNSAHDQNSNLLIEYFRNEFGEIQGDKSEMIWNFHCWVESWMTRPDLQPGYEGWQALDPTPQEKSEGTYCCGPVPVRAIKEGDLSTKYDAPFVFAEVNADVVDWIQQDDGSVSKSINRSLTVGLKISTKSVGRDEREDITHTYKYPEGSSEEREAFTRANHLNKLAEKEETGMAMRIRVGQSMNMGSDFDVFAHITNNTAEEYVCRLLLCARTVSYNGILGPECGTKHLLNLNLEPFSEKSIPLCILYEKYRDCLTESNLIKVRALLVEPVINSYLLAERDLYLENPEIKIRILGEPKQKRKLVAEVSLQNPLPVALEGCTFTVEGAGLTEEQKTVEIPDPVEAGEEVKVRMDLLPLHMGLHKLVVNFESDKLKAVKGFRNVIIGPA
Method: (§1) The method employed to determine the affinity of the anti-TG2 antibodies involved the capture of the chimeric or humanised antibodies on a MAH coated CM5 chip, followed by the injection of a series of TG2 samples in running buffer. The running buffer was 1× HBS-P+ containing 1 mM CaCl₂, or 1×HBS-EP+ for calcium-free experiments. Antibody capture was carried out for a contact time of 120 seconds at a flow rate of 10 μl/min resulting in the capture of approximately 40-80 RU. TG2 was injected over the immobilised antibody at concentrations ranging from 25 nM to 400 nM with a contact time up to 600 seconds at a flow rate of 30 μl/min. Dissociation of TG2 was typically measured for up to 5400 seconds (1.5 hours). Regeneration of the chip was then performed using 3 M MgCl₂, for a contact time of 60 seconds at a flow rate of […], followed by a 300s stabilisation period before the next sample. For each of human and cynomolgus monkey TG2, at least 5 injections at a variety of concentrations were performed in at least two separate experiments.
(§2) Kinetic data were exported from the Biacore T200 Evaluation Software and analysed using GraphPad Prism, where the association phases and dissociation phases were analysed separately using a one phase association model and one-phase exponential decay model respectively. Association rates (kₒₙ) were calculated for each curve individually, and dissociation rates (koff) values from the long dissociation phase data collected. Where koff values were calculated to be <1×10⁻⁵ s⁻¹, values were set at 1×10⁻⁵ for analysis, as rates slower than this could not be estimated accurately. Values for kₒₙ and koff are presented in the tables below as the mean of the individual calculated values for each antibody for each TG2 species from multiple concentrations +/−1 standard deviation. KD values are calculated as mean koff/mean kₒₙ.

[4] = biological target: T2, cynomolgus monkey TG2; assay: SPR (Biacore T200), antibody captured on anti-human IgG1 Fc chip, cynomolgus TG2 injected; +Ca2+
Method: as §1, §2

[5] = biological target: T3, human transglutaminase type 2 (TG2) (human, UniProt P21980 1-687); assay: SPR (Biacore T200), antibody captured on anti-human IgG1 Fc chip, human TG2 injected; +Ca2+
T3 construct: Recombinant human TG2 bought from Zedira (cat. T002) in ELISA, SPR and enzyme assays; also called hTG2; rhTG2
T3 sequence: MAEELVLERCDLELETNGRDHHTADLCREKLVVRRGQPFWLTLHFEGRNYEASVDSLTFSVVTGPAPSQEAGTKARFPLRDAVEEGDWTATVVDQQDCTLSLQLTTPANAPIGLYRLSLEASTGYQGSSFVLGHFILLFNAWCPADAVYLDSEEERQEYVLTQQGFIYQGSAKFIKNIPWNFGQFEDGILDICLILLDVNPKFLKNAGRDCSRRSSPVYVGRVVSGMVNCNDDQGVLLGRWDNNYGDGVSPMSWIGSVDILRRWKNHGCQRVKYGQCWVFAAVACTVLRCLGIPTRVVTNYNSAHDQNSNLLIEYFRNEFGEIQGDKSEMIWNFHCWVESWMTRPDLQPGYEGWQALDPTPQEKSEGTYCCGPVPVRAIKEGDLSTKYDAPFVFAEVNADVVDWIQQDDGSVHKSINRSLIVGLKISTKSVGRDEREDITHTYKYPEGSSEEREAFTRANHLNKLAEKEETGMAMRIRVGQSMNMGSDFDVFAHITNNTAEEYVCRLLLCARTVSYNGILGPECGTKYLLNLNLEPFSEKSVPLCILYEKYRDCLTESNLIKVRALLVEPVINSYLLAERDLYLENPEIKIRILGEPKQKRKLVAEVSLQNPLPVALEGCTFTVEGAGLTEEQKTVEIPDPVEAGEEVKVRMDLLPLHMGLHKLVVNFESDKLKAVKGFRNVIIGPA
Method: (§3) FIG. 45: Human TG2 binding to cAB003 immobilised antibody by Biacore. The association phases of human TG2 injections over the cAB003-coated biosensor at 25, 50, 100 and 200 nM, including in duplicate at 50 nM, are shown on the left. From the same experiment, two long dissociation phases were collected, as shown on the right.
as §1, with “For each of human and cynomolgus monkey TG2, at least 5 injections at a variety of concentrations were performed in at least two separate experiments.” left out
as §2

[6] = biological target: T3, human transglutaminase type 2 (TG2); assay: SPR (Biacore T200), antibody captured on anti-human IgG1 Fc chip, human TG2 injected; -Ca2+
Method: as §3
as §1, with “For each of human and cynomolgus monkey TG2, at least 5 injections at a variety of concentrations were performed in at least two separate experiments.” left out
as §2

[7] = biological target: T3, human transglutaminase type 2 (TG2); assay: SPR (Biacore T200), antibody captured on anti-human IgG1 Fc chip, human TG2 injected; Ca2+ condition not marked in this row
Method: as §1, §2

[8] = biological target: T3, human transglutaminase type 2 (TG2); assay: cell-based or functional assay
[9] = biological target: T2, cynomolgus monkey TG2; assay: SPR (Biacore T200), antibody captured on anti-human IgG1 Fc chip, cynomolgus TG2 injected; Ca2+ condition not marked in this row
Method: as §1, §2

B1: DH2 murine monoclonal anti-TG2 antibody (antibody, V domains shown)
VH: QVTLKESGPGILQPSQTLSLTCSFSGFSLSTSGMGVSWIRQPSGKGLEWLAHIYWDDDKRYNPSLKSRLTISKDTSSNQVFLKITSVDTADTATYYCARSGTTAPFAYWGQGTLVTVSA
VL: QIVLTQSPAIMSASPGEKVTMTCSASSSVSYMYWYQQKPGSSPRLLIYDTSNLASGVPVRFSGSGSGTSYSLTISRMEAEDAATFYCQQWSSSPLTFGAGTKLELK
**Q.** With B1 as the binder, how does the “IC50, 3H-putrescine incorporation TG activity assay” value [1] read?
**A.** 0.000223 mg/ml of IgG (amount required to inhibit 1 ng of TG2)

B2: DD9 murine monoclonal anti-TG2 antibody (antibody, V domains shown)
VH: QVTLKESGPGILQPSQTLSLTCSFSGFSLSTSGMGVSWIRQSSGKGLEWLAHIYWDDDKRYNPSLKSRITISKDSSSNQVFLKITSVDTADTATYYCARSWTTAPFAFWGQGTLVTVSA
VL: QIVLTQSPAIMSASPGEKVTMTCSASSSVDYMYWYQQKPGSSPRLLIYDTSNLASGVPVRFSGSGSGTSYSLTISRMGAEDAATYYCQQWNSSPLTFGAGTKLELK
notes: Mouse IgG from hybridoma (gamma-2a primer MHCG2A, kappa); also called mDD9001
**Q.** Does B2 bind [2]?
**A.** binds

B3: cAB003 chimeric anti-TG2 antibody (murine AB1 variable regions, human IgG1 and human kappa) (antibody, V domains shown)
VH: EVQLVESGGGLVKPGGSLKLSCAASGFTLSSSAMSWVRQTPDRRLEWVATISVGGGKTYYPDSVKGRFTISRDNAKNTLYLQMNSLRSEDTAMYYCAKLISLYWGQGTTLTVSS
VL: DIKMTQSPSSMYASLGERVTITCKASQDINSYLTWFQQKPGKSPKTLIYRTNRLFDGVPSRFSGSGSGQDFFLTISSLEYEDMGIYYCLQYDDFPYTFGGGTKLEIK
notes: The versions differ only in the first 7 residues; also called chimeric AB1
**Q.** B3 was tested. Which Kd [3] did it give?
**A.** 0.093 nM

**Q.** What about the koff [3] of the same binder?
**A.** 1.3e-05 s⁻¹

**Q.** And the kon [3]?
**A.** 140000 M⁻¹ s⁻¹

**Q.** What about the Kd [4] of the same binder?
**A.** 0.05 nM

**Q.** What about the koff [4] of the same binder?
**A.** 1.2e-05 s⁻¹

**Q.** And the kon [4]?
**A.** 240000 M⁻¹ s⁻¹

**Q.** What about the Kd [5] of the same binder?
**A.** < 0.06 nM

**Q.** What about the koff [5] of the same binder?
**A.** < 1e-05 s⁻¹

**Q.** What about the kon [5] of the same binder?
**A.** 170000 M⁻¹ s⁻¹

**Q.** And the Kd [6]?
**A.** < 0.1 nM

**Q.** What about the koff [6] of the same binder?
**A.** < 1e-05 s⁻¹

**Q.** And the kon [6]?
**A.** 86000 M⁻¹ s⁻¹

B4: BB7 murine monoclonal anti-TG2 antibody (antibody, V domains shown)
VH: AVQLVESGGGLVKPGGSLKLSCAASGIIFSSSAMSWVRQTPEKRLEWVATISSGGRSTYYPDSVKGRFTVSRDSAKNTLYLQMDSLRSEDTAIYYCAKLISPYWGQGTTLTVSS
VL: AIKMTQSPSSMYASLGERVIITCKASQDINSYLTWFQQKPGKSPKTLIYLTNRLMDGVPSRFSGSGSGQEFLLTISGLEHEDMGIYYCLQYVDFPYTFGGGTKLEIK
notes: Mouse IgG from hybridoma (gamma-1 primer MHCG1, kappa); also called mBB001
**Q.** Does B4 bind [2]?
**A.** binds

B5: hBB001AA humanised BB7 antibody (BB7 RHA with BB7 RKA) (antibody, V domains shown)
VH: EVQLLESGGGLVQPGGSLRLSCAASGIIFSSSAMSWVRQAPGKGLEWVATISSGGRSTYYPDSVKGRFTVSRDSSKNTLYLQMNSLRAEDTAVYYCAKLISPYWGQGTLVTVSS
VL: DIKMTQSPSSLSASVGDRVTITCKASQDINSYLTWFQQKPGKAPKTLIYLTNRLMDGVPSRFSGSGSGQEFLLTISSLQPEDFATYYCLQYVDFPYTFGQGTKVEIK
notes: The name AA is read as heavy version RHA + kappa version RKA; also called hBB01AA
**Q.** B5 was tested. Which kon [7] did it give?
**A.** 270000 M⁻¹ s⁻¹

**Q.** And the “IC50, inhibition of extracellular TG2 activity of HK2 cells (biotin cadaverine incorporation into fibronectin)” value [8]?
**A.** 19.8 nM

**Q.** What about the Kd [9] of the same binder?
**A.** < 0.03 nM

**Q.** And the koff [9]?
**A.** < 1e-05 s⁻¹

**Q.** And the kon [9]?
**A.** 300000 M⁻¹ s⁻¹

B6: hBB001BB humanised BB7 antibody (BB7 RHB with BB7 RKB) (antibody, V domains shown)
VH: EVQLLESGGGLVQPGGSLRLSCAASGFTFSSSAMSWVRQAPGKGLEWVSTISSGGRSTYYPDSVKGRFTISRDNSKNTLYLQMNSLRAEDTAVYYCAKLISPYWGQGTLVTVSS
VL: DIQMTQSPSSLSASVGDRVTITCKASQDINSYLTWFQQKPGKAPKSLIYLTNRLMDGVPSRFSGSGSGTDFFLTISSLQPEDFATYYCLQYVDFPYTFGQGTKVEIK
notes: The name BB is read as heavy version RHB + kappa version RKB
**Q.** How did the Kd [7] turn out when B6 was run?
**A.** < 0.04 nM

**Q.** What about the koff [7] of the same binder?
**A.** < 1e-05 s⁻¹

**Q.** What about the kon [7] of the same binder?
**A.** 240000 M⁻¹ s⁻¹

**Q.** What about the “IC50, inhibition of extracellular TG2 activity of HK2 cells (biotin cadaverine incorporation into fibronectin)” value [8] of the same binder?
**A.** 4.9 nM

**Q.** What about the Kd [9] of the same binder?
**A.** 0.14 nM

**Q.** And the koff [9]?
**A.** 3.7e-05 s⁻¹

**Q.** And the kon [9]?
**A.** 270000 M⁻¹ s⁻¹

B7: hAB004 (hAB001AE) humanised AB1 antibody, heavy chain version RHA with light chain version RKE (antibody, V domains shown)
VH: EVQLLESGGGLVQPGGSLRLSCAASGFTFSSSAMSWVRQAPGKGLEWVSTISVGGGKTYYPDSVKGRFTISRDNSKNTLYLQMNSLRAEDTAVYYCAKLISLYWGQGTLVTVSS
VL: EIVLTQSPSSLSASVGDRVTITCKASQDINSYLTWYQQKPGKAPKLLIYRTNRLFDGVPSRFSGSGSGTDFFFTISSLQPEDFGTYYCLQYDDFPYTFGGGTKLEIK
notes: Captured by anti-human IgG1 Fc in SPR
**Q.** B7 was tested. Which Kd [9] did it give?
**A.** 0.011 nM
